# Assay results taken from the DeepSol protein solubility set.
# Experiment: soluble on expression in E. coli; label from the status in PepcDB or PDB records
row,Sequence,soluble on expression in E. coli
1,MGSDKIHHHHHHMFEHRFKDLHHTYRAIREVESEHHNIANIIKYVHKNNRVRQPSVGSHIRLRKKWEVEKSTLHARLSWDLERMQVWQLEHLSKLVDFAYNYVPFYHALYHEAGFRTGDIVTWSDFEKLPIVDKKMLVDNRSALCASIGFAPDNHHVARTSGSSGINFTIVQDDTSVDTRVVLNLRQTEMMVGHALSPDDWRYGIYLASERFTSLAGGYPVITVGQDCPAVDVFEHIQKIKPKILYAFPSYLKRLQVCAGDLTEWGVECICTNSEPSTQEERQVFARHFGVPVLDEYSSEEFSLIATECRYGRYHIVEDNLKAEVCNIDPEGWGTLVGTSFANTYMPFIRYSQGDIVKLDARQILCECGTHFRYLDTFHGRADQFLESKNNGKIPPDKLMGLYDSTLILETSGVKEFQIVQTHLDKIEIRIVLMDKEGAYNYALMSNFVSGIKQLFSGDPLTVSVHVLESIPAAKSYKRRLIVNMINS,not soluble
2,VQRPWLAPLPGAPMNACRLLLCFPYGGGGASAFNDLSRLADVGVATWAVKLPGREDRSMEAPVTRVANVIEAIVDALQSVGIPYAFYGHSFGAGLALDVAHALAERDRPLPTHLVLSGRMPPHTGYSPLLGAMDDNQLWQHVCSESLLPLPTDASCSFARHALGKLKADLALNAQLTYRFIRPLPVPLYVLNGQDDPLLELHRLDEWQRYTSTSFHSEYVPGGHFFFNINFQLLYLPLLTALD,not soluble
3,MSLTDAETAVMPDRTNTSRDHAKRYVRHFLADFAKLDQEYPRTYPRMIVRGEGAYVIDEEGRRILDAGSHLGACQIGHGHPEVADRIHQQVRNIEFIALDAGISHVYAAALGERLAKMVLCDDPVFSFTNSGSESNELAFKIARQYHRRRGQPGRVKIFSRNGSYHGSTLATSAATGAAPFKEGFGPLPEGFIQGAQPSPGRCGHCGFNDACSLACLDDFERLIMAEGSETVAAVIAEPIAIPQAVKVPPPDYFVRLRKFCDDHGILLIIDEVVCGFGRTGRMFGAEHFGVHGDIVTFAKGLTSGYVPMGAVAVARHVEEVFKNAPLLHLNTYAGHPVACAAAMAVLDIMERERLVLHSARMEPILRRELQRLQNAVARVRYLSVIGLLSSVIVDISDRPDPDAVIRRVRNIAYDNGLLARVARDGALLSVHFYPPLVVAEQDIVAGVRALEIALRMIEGHHHHHH,not soluble
4,AIAETGGGAPLTKSSEAVEGDFVEDRLRGNEAFRRGNYEAAASYYSEALEKIRLAKTELPTQDRYPWSLEEVLIRCNRALVFLRLASAAALPNVGSNRFEEDACTAEHESEEATPCSLWQRAAEDASVALDLITDFEDEGESERVTELRVKALYRRMVANKGQNNFADAAKDAEALAKIRPEYRSEAELLAQRAAAESERAKQEALQKLKEVGNSFLSLFGVSIDNFQTKRNPDGTYSVSYCPKS,soluble
5,MSLSKLKVSVFSKHLQFLQGEELAKATAAIGFDGVDLAVRKGGHVEPATVAKDLPALVAILRKNGLEVPMITTDIADTDTPFTEDLLKAASALGIRYYRFGAYKWSAEKPYAAQLEIMKPKLAKLAALNAKYQMCAMYHTHSGVGVVGASIWDLWYMMKDLDPKLMGMNYDVGHATIEGGLGGWIDSFKIAGNYVRGIAVKDFAWEKDPKGGQRSQWKPIGEGTVKFPQFYGMVAATDFAGPFQMHFEYPLGGANNGTRTLTVPKEEVHAAMKKDLDKTRAMLAQAGLEGHHHHHH,not soluble
6,KRLQQKIEKGELDRMPEVKEADIECCGQHEVCEKDSLLAAVSKKIEYYDDEELDQFIGKEANAYTDEETNQFRDVLYTMQDIDVAGWVRSLQLRGIELPDDLKDEVFLIIGERRNG,soluble
7,QVKEVQIRFEKDALHNIMEMQYKNYQLSKENIDMVNQKYHDLKHQINILKTQSYTGKSTNYLEKMEREIRVYETQNKTGNQILDAVLTNKAMICQNKEIELKFIVDGEALSFMDDMDVSALFGNMLDNAIESAEKQQEKQKRLIWLYVTREKQFVRIRTENYCDEKIHFKNGMPVTTKKDRRLHGYGMKSIKSTVEKYHGSVVAAQENNWFELKILLPAGR,not soluble
8,MGSDKIHHHHHHMSLPKYVEQLLKEKSNVRVFSFKYDGKSYWLKQTEKLSFIWRFLKSNPAEMLKSEIIRLQELNKKSAPVPKLVLFGDNFFVTEDVGSSANTWVENEDLSIELRNKVLFDCAQALASLHKQNITHGRPALRDMIWCEEKVIFVDFECTSSSNNIDWQKIRDGLVFIHSLGRSSTVSDEQIALTVTHYRQYCDADIWQKTADFIYKYRWAYYVLRIFKPVARMDLIAIYRLFEAILKNQETL,not soluble
